Among the data in article PMC6004266 are stoichiometry N (ACIII:cyt aa3) values, retold here.

This assay deals with Alternative Complex III from Flavobacterium johnsoniae (Flavobacterium johnsoniae (endogenous, ATCC 17061 strain UW101)). The assay is described as follows: cryo-EM structure.

In turn, “aa3-type cytochrome c oxidase from Flavobacterium johnsoniae (complex)” displayed a stoichiometry N (ACIII:cyt aa3) of 1.
